Assay results taken from PMC7926355, “Mutation of GGMP Repeat Segments of Plasmodium falciparum Hsp70-1 Compromises Chaperone Function and Hop Co-Chaperone Binding” (International Journal of Molecular Sciences, 2021).

Legend:
Assay in all cases: SPR
Settings in all cases: both partners purified
[1] = biological target: T1, Plasmodium falciparum Hsp70-1 (PfHsp70-1), wild type (Plasmodium falciparum 3D7, UniProt Q8IB24 1-677)
T1 construct: PfHsp70-1, cytosolic Hsp70 of Plasmodium falciparum 3D7, NCBI XP_001349336.1; called the full length PfHsp70-1 protein; pQE30 vector with N-terminal (His)6-tag; also called WT; wild type PfHsp70-1

PfHsp70-1_(G632) = PfHsp70-1_(G632) (Plasmodium falciparum 3D7, UniProt Q8IB24 1-677, 632GGMPGGMP639 to 632AALAAALA639)
PfHsp70-1_(G648) = PfHsp70-1_(G648) (Plasmodium falciparum 3D7, UniProt Q8IB24 1-677, 648[…]657 to 648[…]657)
PfHsp70-1_(G632-664) = PfHsp70-1_(G632-664) (Plasmodium falciparum 3D7, UniProt Q8IB24 1-677, 632[…]664 to 632[…]664)
PfHsp70-1∆G = PfHsp70-1∆G (Plasmodium falciparum 3D7, UniProt Q8IB24 1-677, deletion of residues 632-664)

Measured: binding result

B1: Plasmodium falciparum Hsp70-Hsp90 organising protein (PfHop) (natural protein, UniProt Q8ILC1 1-564, looked up)
chain: MVNKEEAQRLKELGNKCFQEGKYEEAVKYFSDAITNDPLDHVLYSNLSGAFASLGRFYEALESANKCISIKKDWPKGYIRKGCAEHGLRQLSNAEKTYLEGLKIDPNNKSLQDALSKVRNENMLENAQLIAHLNNIIENDPQLKSYKEENSNYPHELLNTIKSINSNPMNIRIILSTCHPKISEGVEKFFGFKFTGEGNDAEERQRQQREEEERRKKKEEEERKKKEEEEMKKQNRTPEQIQGDEHKLKGNEFYKQKKFDEALKEYEEAIQINPNDIMYHYNKAAVHIEMKNYDKAVETCLYAIENRYNFKAEFIQVAKLYNRLAISYINMKKYDLAIEAYRKSLVEDNNRATRNALKELERRKEKEEKEAYIDPDKAEEHKNKGNEYFKNNDFPNAKKEYDEAIRRNPNDAKLYSNRAAALTKLIEYPSALEDVMKAIELDPTFVKAYSRKGNLHFFMKDYYKALQAYNKGLELDPNNKECLEGYQRCAFKIDEMSKSEKVDEEQFKKSMADPEIQQIISDPQFQIILQKLNENPNSISEYIKDPKIFNGLQKLIAAGILKVR
notes: PfHop, Hsp70-Hsp90 organising protein of Plasmodium falciparum
binds: all assays above
